# Paper PMC3783164
# B1: MRE1.3 (dsDNA)
# DNA 1: GCAGCAGCCTCCTCCCCCCGCACGGTGTGAGCGCCCGACGCGGCCGAGGCGGCCGGAGTCCCGAG
# DNA 2: CTCGGGACTCCGGCCGCCTCGGCCGCGTCGGGCGCTCACACCGTGCGGGGGGAGGAGGCTGCTGC
# B2: MRE1.3a (25 bp) (dsDNA)
# DNA 1: GCAGCAGCCTCCTCCCCCCGCACGG
# DNA 2: CCGTGCGGGGGGAGGAGGCTGCTGC
# Molecular target: SP1 (rhSP1) (Homo sapiens, UniProt P08047 1-785)
# Test: EMSA
# Sequence of SP1 (rhSP1) (P08047 whole entry): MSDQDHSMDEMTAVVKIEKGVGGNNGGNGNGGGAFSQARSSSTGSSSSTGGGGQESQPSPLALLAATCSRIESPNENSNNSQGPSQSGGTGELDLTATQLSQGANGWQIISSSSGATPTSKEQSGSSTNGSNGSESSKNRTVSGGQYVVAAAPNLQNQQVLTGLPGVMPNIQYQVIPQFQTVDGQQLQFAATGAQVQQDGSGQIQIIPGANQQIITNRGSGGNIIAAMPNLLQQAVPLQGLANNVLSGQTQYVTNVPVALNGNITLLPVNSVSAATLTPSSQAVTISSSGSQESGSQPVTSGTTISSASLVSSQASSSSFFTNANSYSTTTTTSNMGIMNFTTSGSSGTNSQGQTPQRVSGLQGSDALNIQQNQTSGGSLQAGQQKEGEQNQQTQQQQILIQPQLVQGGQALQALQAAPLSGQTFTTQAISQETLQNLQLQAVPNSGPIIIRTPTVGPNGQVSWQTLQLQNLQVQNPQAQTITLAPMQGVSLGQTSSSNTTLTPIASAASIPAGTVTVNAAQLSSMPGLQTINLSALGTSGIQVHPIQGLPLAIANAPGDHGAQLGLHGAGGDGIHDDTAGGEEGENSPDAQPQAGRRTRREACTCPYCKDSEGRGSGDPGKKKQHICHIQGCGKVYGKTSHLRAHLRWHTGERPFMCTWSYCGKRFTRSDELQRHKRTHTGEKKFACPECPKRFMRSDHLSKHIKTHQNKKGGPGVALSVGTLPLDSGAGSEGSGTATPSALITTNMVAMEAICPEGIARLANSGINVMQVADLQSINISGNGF
binder,measurement,value
B1,binding result,binds
B2,binding result,binds
